{"source": "paper PMC3177189", "binders": {"B1": {"name": "AaBoxA duplex (dsRNA) (dsRNA)", "RNA 1": "GGCUCCUUGGCA", "RNA 2": "GGCUCCUUGGCA"}}, "key": {"[1]": {"molecular_target": "T1, AaNusB;AaNusE (S10) loop deletion (Aquifex aeolicus;Aquifex aeolicus, UniProt O66530;O66430 1-148;1-46+=S+69-104, |internal_change)", "T1 sequence 1": "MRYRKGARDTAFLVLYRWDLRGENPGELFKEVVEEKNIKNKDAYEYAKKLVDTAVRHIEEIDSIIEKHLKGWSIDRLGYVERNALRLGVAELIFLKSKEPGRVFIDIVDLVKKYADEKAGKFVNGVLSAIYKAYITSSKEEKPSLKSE", "T1 sequence 2": "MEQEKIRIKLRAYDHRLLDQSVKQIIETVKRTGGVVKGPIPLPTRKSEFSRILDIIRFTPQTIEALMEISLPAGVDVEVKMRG", "assay": "crystal structure"}, "[2]": {"molecular_target": "T1, AaNusB;AaNusE (S10) loop deletion", "assay": "crystal structure", "remark": "listed apart in the source"}, "EcNusB wt": {"molecular_target": "EcNusB wt (Escherichia coli, UniProt P0A780 1-139)", "assay": "NMR"}, "EcNusB F122D": {"molecular_target": "EcNusB F122D (Escherichia coli, UniProt P0A780 1-139, F122D)", "assay": "ITC"}}, "note": "Where two headings read alike, the source gives them in different places.", "data": [{"binder": "B1", "values": [{"measurement": "binding result", "setting": "[1]", "value": "binds"}]}, {"binder": "GGCUCCUUGGCA (ssRNA)", "note": "[AaBoxA]", "values": [{"measurement": "binding result", "setting": "[2]", "value": "binds"}]}, {"binder": "GCCGCGCCGCUGAGAAAAAGCGAAGCGGCACUGCUCUUUA (structured_RNA)", "note": "[EcBoxA-BoxB]", "values": [{"measurement": "binding result", "setting": "EcNusB wt", "value": "binds"}]}, {"binder": "UGCUCUUUAACA (ssRNA)", "note": "[EcBoxA]", "values": [{"measurement": "binding result", "setting": "EcNusB F122D", "value": "no binding"}]}]}
